Source: the supplement of paper PMC10567573
± gives the standard deviation.

Test: protein stability index of a GFP-peptide fusion (GPS, HEK-293T) (PSI 1-6); higher = more stable
Conditions: c terminus: a fixed tail appended
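Note: 24-mer peptide tiles fused after GFP, lentivirally expressed, FACS-sorted into six equal bins by GFP/DsRed ratio, decoded by Illumina sequencing, PSI is the read-weighted mean bin number.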

| Sequence | protein stability index (treatment: DMSO) | protein stability index (treatment: MLN4924 1 uM, 8 h) |
| --- | --- | --- |
| APVLVAAPHSTFFDPIVLLPCDLP [LPCAT4] | 2.25 ± 0.27 | 2.47 ± 0.32 |
| PEPVYKLTQRQVNITVQKKVSQWW [HACD3] | 2.35 ± 0.49 | 2.51 ± 0.31 |
| GLAFFTFPNIASATKFKQLYRSRM [HMOX1] | 2.39 ± 0.78 | 1.98 ± 0.34 |
| RRNPELQEELQIQAAVAAGDVHTV [ASB7] | 4.85 ± 0.18 | 4.82 ± 0.16 |
| ERDRDPCGGSGGGGGGGGGGGGCS [LURAP1L] | 5.37 ± 0.35 | 5.4 ± 0.24 |
| TIYGKTFRVVDCDQFTQVFLESQG [EFHC1] | 2.19 ± 0.25 | 2.29 ± 0.39 |
| SGETWNPLKLHYQLRNVRERLAKN [GOLPH3] | 2.87 ± 0.54 | 3.03 ± 0.21 |
| KEAKEFLVQLRNMVQQIQENSVEF [TRIM9] | 2.29 ± 0.31 | 2.41 ± 0.23 |
| LAAKALLDQKKQDPRVQDFLQRCL [NET1] | 2.28 ± 0.31 | 2.42 ± 0.25 |
| NRNLQKFSLFGDISVLQQQGSLSN [FBXO33] | 2.83 ± 0.28 | 2.86 ± 0.32 |
| TRIEKRIVITGDADIDHDQALAQA [EPB41L3] | 4.48 ± 0.27 | 4.72 ± 0.25 |
| YIPRRLEEAAMQKCLVTEAQTLLR [RSAD1] | 2.34 ± 0.23 | 2.63 ± 0.17 |
| FFGVFQSFVVLLYILDNETNFVVQ [CLPTM1] | 3.19 ± 0.33 | 2.86 ± 0.42 |
| EQKNHTFPRLNRNKYMVTDGAAYI [PLD5] | 2.85 ± 0.078 | 3.19 ± 0.24 |
| VGFMWRQRGRVISLWERLEFVNGW [MCOLN1] | 2.59 ± 0.65 | 3.05 ± 0.62 |
| EASQLRRLNIKKDDEFFHFVLLCF [TMEM40] | 2.15 ± 0.25 | 2.22 ± 0.26 |
| RECGLAAPRFSFNDPSGSEEADFL [IRX6] | 4.53 ± 0.21 | 4.34 ± 0.33 |
| AGSSLPTSSKVNATVPSNMMSVNG [ACBD3] | 4.13 ± 0.19 | 4.16 ± 0.14 |
| MCQRLRSMQYNGSYFDRGAKGGSR [DFFB] | 3.26 ± 0.26 | 3.48 ± 0.42 |
| EMKEFSSQLAGQVNVEMDAAPGVD [KRT15] | 5.29 ± 0.24 | 5.07 ± 0.11 |
| MEAAREGHEEMVALLLGQGANINA [ANKRD17] | 4.16 ± 0.17 | 4.15 ± 0.24 |
| ILTIMATLKIRNSNFYTVAVTSLS [TMEM106C] | 3.3 ± 0.36 | 3.16 ± 0.38 |

| Sequence | protein stability index (treatment: DMSO) | protein stability index (treatment: MLN4924 1 uM, 8 h) |
| --- | --- | --- |
| GHGNKVLCMDWCKDKRRIVSSSQD [GNB5] | 3.64 ± 0.28 | 3.85 ± 0.45 |
| ALVHDHQAYAHYLLATFPRRALAP [ANKRD9] | 2.22 ± 0.21 | 2.4 ± 0.19 |
| PSEKKVAIIRTPPKSPATPKQLRL [MAP2] | 4.2 ± 0.15 | 4.28 ± 0.15 |
| GEENFEVVKQFVTGIIDSLTISPK [MATN2] | 3.18 ± 0.2 | 3.32 ± 0.46 |
| GRDRNLAPDEKRSNVRWDHESVCK [LUC7L3] | 4.61 ± 0.41 | 4.55 ± 0.2 |
| WKNFDERKEMATILSKMPKPKPPP [CCNC] | 3.63 ± 0.28 | 3.64 ± 0.31 |
| YFFKRPYPFVLFYSKFHGLEMCVD [KMT2E] | 2.75 ± 1 | 3.19 ± 0.55 |
| ELCVKLMFLHPVDYGRKAEELLWR [SMG5] | 2.41 ± 0.7 | 2.33 ± 0.89 |
| NEYAYLPLHVHEEEGILVAVGQDC [DCAF4] | 3.75 ± 0.18 | 3.91 ± 0.12 |
| LLCLLHFSIVSVAAHLALLLLCGT [RTN2] | 3.19 ± 0.65 | 3.33 ± 0.3 |
| VSQQTGSPGKQPGENSDCHRDSSQ [ZNF8] | 5.31 ± 0.47 | 5.47 ± 0.21 |
| GTTMASGGRFRCPSCRHEVVLDRH [TRIM55] | 2.08 ± 0.41 | 2.12 ± 0.22 |
| TIFEKENFIGRQWEISDDYPSLQA [CRYBA1] | 3.26 ± 0.29 | 3 ± 0.32 |
| EILNFNQYYEACRKAAKSLIKLGL [ACSBG2] | 1.91 ± 0.39 | 2.92 ± 1.3 |
| EEANADLEVKIHDWYQKQTPTSPE [KRT15] | 5.33 ± 0.23 | 5.29 ± 0.16 |
| FLTLEKFTIHNYSHSRERPYKCVQ [PLAGL1] | 2.68 ± 0.26 | 2.13 ± 0.24 |
| SLEISPQNVDVNVHPTKHEVHFLH [MLH1] | 3.46 ± 0.23 | 3.63 ± 0.32 |
| AANEQLTRAILRERICSEEERAKA [CHCHD3] | 4.82 ± 0.23 | 4.97 ± 0.19 |
| VVGALPAEHQFSFMEKRNQWLVSQ [TRAF3IP2] | 2.36 ± 0.24 | 2.65 ± 0.26 |
| QGRNSLWLSDWVTSYKVMVSNDSH [CPXM2] | 1.92 ± 0.25 | 2.47 ± 0.56 |
| TPDTRHPCSLGSSLVADYSDSESE [YJU2B] | 5.39 ± 0.23 | 5.59 ± 0.25 |
| CQTGGVEDQEEWHAQVVEELSNFK [ZBED1] | 5.73 ± 0.26 | 5.6 ± 0.16 |
